Test results published in article PMC9974061.

Legend:
[1] = molecular target: galectin-3 (gal-3), recombinant (UniProt P17931)
[2] = molecular target: TSG101, His-tagged recombinant (UniProt Q99816); assay: BLI; Octet RED96; biotinylated ALIX (1 ug/ml), TSG101 (0.5 ug/ml) or gal-3 (1 ug/ml) on streptavidin biosensors; two-fold dilutions of S (280-70 uM) and P domain (144-36 uM); 20 mM HEPES, 150 mM NaCl, 0.005% Tween 20, 2 mg/ml BSA, pH 7.8; 2:1 model
[3] = molecular target: apoptosis-linked gene 2-interacting protein X (ALIX), His-tagged recombinant (UniProt Q8WUM4); assay: as above
Sequence of apoptosis-linked gene 2-interacting protein X (ALIX), His-tagged recombinant (Q8WUM4 whole entry): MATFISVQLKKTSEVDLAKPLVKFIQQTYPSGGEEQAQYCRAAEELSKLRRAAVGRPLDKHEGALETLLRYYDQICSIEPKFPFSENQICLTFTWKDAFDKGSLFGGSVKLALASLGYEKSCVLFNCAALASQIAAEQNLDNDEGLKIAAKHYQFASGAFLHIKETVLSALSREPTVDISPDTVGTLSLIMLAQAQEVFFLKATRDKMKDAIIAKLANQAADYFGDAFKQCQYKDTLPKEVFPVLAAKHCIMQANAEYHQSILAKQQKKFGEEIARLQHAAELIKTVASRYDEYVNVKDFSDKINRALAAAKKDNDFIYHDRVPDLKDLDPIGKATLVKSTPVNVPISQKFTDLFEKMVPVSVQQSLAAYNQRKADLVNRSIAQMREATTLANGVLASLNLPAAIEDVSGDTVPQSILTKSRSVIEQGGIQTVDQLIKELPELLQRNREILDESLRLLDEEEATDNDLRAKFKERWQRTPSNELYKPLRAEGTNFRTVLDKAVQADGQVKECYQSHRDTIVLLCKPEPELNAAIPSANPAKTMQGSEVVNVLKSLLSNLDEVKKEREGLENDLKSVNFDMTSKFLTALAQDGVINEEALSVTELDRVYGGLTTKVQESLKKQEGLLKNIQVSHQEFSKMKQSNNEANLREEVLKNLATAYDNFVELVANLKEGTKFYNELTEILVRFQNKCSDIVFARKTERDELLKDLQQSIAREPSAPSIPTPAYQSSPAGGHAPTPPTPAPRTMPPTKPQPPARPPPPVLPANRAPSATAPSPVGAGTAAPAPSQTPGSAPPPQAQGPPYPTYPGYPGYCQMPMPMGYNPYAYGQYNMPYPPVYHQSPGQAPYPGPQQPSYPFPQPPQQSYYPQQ

Sequence of TSG101, His-tagged recombinant (Q99816 whole entry): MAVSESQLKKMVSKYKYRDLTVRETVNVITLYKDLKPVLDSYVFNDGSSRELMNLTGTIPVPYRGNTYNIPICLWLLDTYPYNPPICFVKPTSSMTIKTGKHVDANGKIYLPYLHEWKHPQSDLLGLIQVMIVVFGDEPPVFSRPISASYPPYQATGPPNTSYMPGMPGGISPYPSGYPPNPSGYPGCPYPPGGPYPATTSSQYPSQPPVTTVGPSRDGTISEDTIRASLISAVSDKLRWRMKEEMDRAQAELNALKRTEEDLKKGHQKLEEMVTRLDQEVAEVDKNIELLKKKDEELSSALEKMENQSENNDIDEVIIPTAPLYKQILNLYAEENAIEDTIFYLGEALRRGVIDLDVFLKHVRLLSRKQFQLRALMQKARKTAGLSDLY
Sequence of galectin-3 (gal-3), recombinant (P17931 whole entry): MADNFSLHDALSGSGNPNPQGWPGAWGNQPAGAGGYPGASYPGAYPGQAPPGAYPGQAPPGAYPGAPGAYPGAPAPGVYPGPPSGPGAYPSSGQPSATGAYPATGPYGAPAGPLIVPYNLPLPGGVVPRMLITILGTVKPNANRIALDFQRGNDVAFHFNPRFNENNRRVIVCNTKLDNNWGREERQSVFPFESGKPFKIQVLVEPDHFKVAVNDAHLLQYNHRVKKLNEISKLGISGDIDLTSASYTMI

Substance | GII.4 virus (stool isolate) replication in J2 HIEs at 24 h in the presence of anti-gal-3 antibody [1] [% reduction] | Kd [2] [µM] | Kd [3] [µM]
GII.4 Sydney/2012 virus-like particles (complex) | 98 | – | –
GII.4 capsid Shell (S) domain (domain or fragment) | – | 21.5 | 9.92
